Test results: patent US20140056903A1 (Regeneron, published 2014)
Changes are numbered by the printed parent chain. Names may count otherwise.

B1: H4H2364S (antibody, human IgG4, V domains shown)
VH: EVQLVESGGGLEQPGGSLRLSCAASGFTFSSYVMSWVRQVPGKGLEWVSVISGSGGSTYYADSVKGRFTISRDNSKNTLYLQMNSLRAEDTAVYYCAKPSSYSSSNFHYGMDVWGQGTTVTVSS
VL: DIQMTQSPYSVSASVGDRVTITCRASQGISSWLAWYQQKPGRAPKLLIYAASSLQSGVPSRFSGSGSGTDFTLTISSLQPEDFATYYCQKTNSFPFTFGPGTKVEIK
notes: human IgG4 Fc (H4H)
B2: H4H2344S (antibody, human IgG4, V domains shown)
VH: EVQLVESGGGVVQPGRSLRLSCAASGFSFSDYVMHWVRQAPGKGLEWVASIWFDGSNEFYADSVKGRFTISRDNSKNTLFLQMNSLRAEDTAVYYCAKKGVLVATSAFDIWGQGTMVTVSS
VL: DIQMTQSPSSLSASVGDRVTITCRASQSINNYLNWYHQKPGKAPKLLIYAASSLQSGVPSRFSGSGSGTDYTLTISSLQPEDFGNYYCQQSYRTSMYTFGQGTKVEIK
notes: human IgG4 Fc (H4H)
B3: H4H2346S (antibody, human IgG4, V domains shown)
VH: B2 VH with E1Q
VL: B2 VL with D1E, Q3V
notes: human IgG4 Fc (H4H)
B4: H4H2354S (antibody, human IgG4, V domains shown)
VH: B2 VH with E1Q
VL: B2 VL with M4L
notes: human IgG4 Fc (H4H); also called H4H2354S-1
B5: H4H2293P (antibody, human IgG4, V domains shown)
VH: B2 VH with E1Q, F59L, D109H
VL: B2 VL with D1A, S28N, K45N, R93S, V105L
notes: human IgG4 Fc (H4H)
B6: H4H2341S (antibody, human IgG4, V domains shown)
VH: EVQLVESGAEVKKSGSSVKVSCKASGGTFSRYAISWVRQAPGQGLEWMGGIIPLFGTLNYAQKFQGRVTLTTDESTSTAYMELSSLRSEDTAVYYCAVFYYGSGSYRNWFDPWGQGTLVTVSS
VL: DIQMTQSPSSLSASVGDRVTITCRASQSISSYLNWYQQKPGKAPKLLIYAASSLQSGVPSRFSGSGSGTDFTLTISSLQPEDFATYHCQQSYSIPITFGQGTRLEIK
notes: human IgG4 Fc (H4H)
B7: H4H2345S (antibody, human IgG4, V domains shown)
VH: EVQLVESGGGLVRPGRSLRLSCAASGFTFDNYAMHWVRQVPGKGLEWVSGITWNSVSLGYADSVKGRFTISRDNAQNSLYLQMNSLRTVDTALYYCAKDRWGGSYYFDFWGQGTLVTVSS
VL: DIVMTQSPSSLSASVGDRVTITCRASQGISNYLAWYQQKPGKVPKLLIYSASTLQSGVPSRFSGSGSGTDFTLTISNLQPEDFATFFCQKYNSAPTFGGGTKVEIK
notes: human IgG4 Fc (H4H)

Target: T1, human GFRα3 expressed with a C-terminal myc-myc-hexahistidine tag (human, UniProt O60609 32-374, biotinylated (sites not given) in ELISA format 2 and in the Octet cross-competition; not in SPR)
T1 construct: also called hGFRα3-mmh; hGFRα3-mmH
Test: blocking ELISA 2, biotin-hGFRα3-mmH to coated hARTEMIN-mmH + hRET-10His
Experimental: The equilibrated sample solutions were then transferred to the hARTEMIN-mmH-coated plate. […] Absorbance was recorded at 450 nm on a Victor X5 plate reader (Perkin Elmer) to determine the amount of free hGFRα3-hFc in the pre-equilibrated hGFRα3-hFc-antibody solutions that was able to bind to the plate coated with hARTEMIN-mmH. IC₅₀ values, defined as the concentration of antibody required to reduce the signal from a constant concentration of hGFRα3-hFc by 50%, were calculated from the data using Prism software from GraphPad. The absorbance measured at the constant amount of 120 pM hGFRα3-hFc in the absence of anti-GFRα3 antibody is defined as 0% blocking and the absorbance with no added hGFRα3-hFc is defined as 100% blocking. The observed absorbance in the wells containing the highest antibody concentration was used to calculate the maximum blocking percent shown in the table.
In the second ELISA format, the plates, samples and data were processed similarly as for the first format except both hARTEMIN-mmH and human RET with a C-terminal 10 histidine tag (hRET-10His; R&D Systems, #1168-CR/CF) were coated for the blocking ELISA experiment. The 96-well microtiter plates were coated with a mixture of 1.2 ug/ml hARTEMIN-mmH and 6.9 ug/ml hRET-10His proteins in PBS overnight at 4° C. and then blocked with a solution of 0.5% (w/v) BSA. A constant amount of biotinylated human GFRα3 with a C-terminal myc-myc-hexahistidine tag (biotin-hGFRα3-mmH; SEQ ID:370) at 1 nM was pre-mixed with varied amounts of anti-GFRα3 antibodies, ranging from 0 to ˜100 nM in serial dilutions, followed by a 1 hour incubation at RT to allow antibody-biotin-hGFRα3-mmH binding to reach equilibrium. The equilibrated samples were then transferred to the coated plate. After 1 hour of binding, the plate was washed, then the bound biotin-hGFRα3-mmH was detected using HRP conjugated streptavidin (Pierce, #N200), and colorimetric signals were developed using TMB HRP substrates.

% max blocking [%] | IC50 [nM] | Binder
100 | 1.45 | B1
100 | 0.459 | B2
99 | 0.797 | B3
97 | 1.32 | B4
95 | 7.38 | B5
98 | 1.62 | B6
75 | 14.6 | B7
